Data taken from patent US20040176285A1, “Tip39 polypeptides” (priority 2001, published 2004).
Where no end group is shown, it is not given here.

Tests used:
[1] = biological target: T1, PTH1R (Homo sapiens, UniProt Q03431); conditions: cited from earlier work
T1 sequence (Q03431 27-593): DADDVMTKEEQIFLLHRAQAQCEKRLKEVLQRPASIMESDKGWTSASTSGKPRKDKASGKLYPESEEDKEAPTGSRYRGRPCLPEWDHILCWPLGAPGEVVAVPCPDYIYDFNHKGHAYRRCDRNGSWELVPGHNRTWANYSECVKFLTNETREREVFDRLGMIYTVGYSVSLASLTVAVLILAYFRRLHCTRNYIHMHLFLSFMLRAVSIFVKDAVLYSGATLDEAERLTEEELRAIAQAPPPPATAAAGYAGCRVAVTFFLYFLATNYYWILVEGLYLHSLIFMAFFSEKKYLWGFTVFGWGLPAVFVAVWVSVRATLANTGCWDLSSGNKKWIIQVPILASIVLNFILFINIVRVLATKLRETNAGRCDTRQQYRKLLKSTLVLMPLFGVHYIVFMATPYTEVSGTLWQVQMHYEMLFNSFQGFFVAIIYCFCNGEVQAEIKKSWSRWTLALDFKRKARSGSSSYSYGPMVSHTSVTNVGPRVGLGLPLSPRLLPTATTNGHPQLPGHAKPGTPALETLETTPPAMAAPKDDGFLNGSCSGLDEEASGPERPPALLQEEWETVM

[2] = biological target: T1, PTH1R; assay: Inhibition of agonist-stimulated cAMP accumulation in HKrk-B7 cells; type: cell-based; parameters: expressed in transfected cells; conditions: agonist PTH(1-34), PTHrP(1-36) or PTHrP(1-20)/TIP(23-39) at 1 nM (about half-maximal)
Description: FIG. 4A-4F. Inhibition of agonist-stimulated cAMP accumulation in HKrk-B7 cells (FIG. 4A-4C) or SaOS-2 cells (FIG. 4D-4F). […] Data are expressed as % of half-maximal cAMP accumulation and represent the results (mean±SE) of at least three independent experiments.
Na^125I (specific activity: 2,000 Ci/mmol) was purchased from DuPont/NEN, Boston, Mass. Fetal bovine serum, 3-isobutyl-1-methyl-xanthine (IBMX), and BSA were from Sigma, St. Louis, Mo., and trifluoroacetic acid (TFA) was from Pierce, Rockford, Ill. Radiolabeled rPTH(1-34) and PTHrP(1-36) were prepared by the chloramine-T method, followed by HPLC purification using a 30-50% ACN/0.1% TFA gradient over 30 minutes; radioreceptor assays were performed in 24-well plates as previously described (Gardella, T. J., et al., J. Biol. Chem. 271:19888-19893 (1996); Fukayama, S. et al., Endocrinology 134:1851-1858 (1994)). […] The entire lysate was counted for γ-irradiation. Specific binding was determined after subtracting radioactivity bound in the presence of maximal concentrations of unlabeled competing peptide (10^−6 M). […] Data were analyzed and graphically illustrated using the graph-pad prism software package.

[3] = biological target: T2, human PTH/PTHrP receptor (PTH1R) (human, UniProt Q03431 27-593); assay: radioreceptor competition on HKrk-B7 cells; tracer 125I-rat [Nle8,21,Tyr34]PTH(1-34)amide
T2 construct: whole, on cells; HKrk-B7 cells about 10^6 receptors/cell; SaOS-2 about 30,000 receptors/cell; also called hPTH-1 receptor; PTH-1 receptor
T2 sequence (looked up): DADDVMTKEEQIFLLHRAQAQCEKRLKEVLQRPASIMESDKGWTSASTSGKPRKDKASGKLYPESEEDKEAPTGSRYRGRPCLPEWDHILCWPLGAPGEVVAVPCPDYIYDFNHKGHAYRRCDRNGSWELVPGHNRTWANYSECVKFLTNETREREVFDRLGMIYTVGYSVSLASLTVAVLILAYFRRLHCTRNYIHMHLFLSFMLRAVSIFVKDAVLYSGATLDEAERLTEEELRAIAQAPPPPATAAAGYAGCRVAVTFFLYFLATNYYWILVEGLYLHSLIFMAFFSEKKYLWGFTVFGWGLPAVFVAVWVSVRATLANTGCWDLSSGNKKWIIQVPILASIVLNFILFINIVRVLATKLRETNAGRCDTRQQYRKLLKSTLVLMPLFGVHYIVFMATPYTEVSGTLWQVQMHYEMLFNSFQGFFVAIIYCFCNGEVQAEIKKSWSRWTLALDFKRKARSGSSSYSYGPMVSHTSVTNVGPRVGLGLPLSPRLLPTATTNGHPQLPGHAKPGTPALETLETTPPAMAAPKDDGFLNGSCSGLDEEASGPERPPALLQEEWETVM
Procedure: (§1) Na¹²⁵I (specific activity: 2,000 Ci/mmol) was purchased from DuPont/NEN, Boston, Mass. Fetal bovine serum, 3-isobutyl-1-methyl-xanthine (IBMX), and BSA were from Sigma, St. Louis, Mo., and trifluoroacetic acid (TFA) was from Pierce, Rockford, Ill. […] After 4 h at 16° C., buffer was completely removed, the cells were rinsed with cold BB and lysed with 1 M NaOH. The entire lysate was counted for γ-irradiation. Specific binding was determined after subtracting radioactivity bound in the presence of maximal concentrations of unlabeled competing peptide (10⁻⁶ M). Agonist-dependent stimulation of cAMP accumulation by HKrk-B7 and SaOS-2 cells (48-well plates; stimulation at room temperature for 45 minutes) and the subsequent measurement of cAMP by radioimmunoassay was performed as previously described (Gardella, T. J., et al., J. Biol. Chem. 271:19888-19893 (1996); Bergwitz, C., et al., Endocrinology 139:723-732 (1998)). Data were analyzed and graphically illustrated using the graph-pad prism software package.

[4] = biological target: T2, human PTH/PTHrP receptor (PTH1R); assay: radioreceptor competition on HKrk-B7 cells; either tracer
Procedure: (§2) Specific binding was determined after subtracting radioactivity bound in the presence of maximal concentrations of unlabeled competing peptide (10⁻⁶ M). Agonist-dependent stimulation of cAMP accumulation by HKrk-B7 and SaOS-2 cells (48-well plates; stimulation at room temperature for 45 minutes) and the subsequent measurement of cAMP by radioimmunoassay was performed as previously described (Gardella, T. J., et al., J. Biol. Chem. 271:19888-19893 (1996); Bergwitz, C., et al., Endocrinology 139:723-732 (1998)). Data were analyzed and graphically illustrated using the graph-pad prism software package.

[5] = biological target: T2, human PTH/PTHrP receptor (PTH1R); assay: cell-based or functional assay
[6] = biological target: T2, human PTH/PTHrP receptor (PTH1R); assay: radioreceptor competition on HKrk-B7 cells
Procedure: as §2

[7] = biological target: T2, human PTH/PTHrP receptor (PTH1R); assay: radioreceptor competition on HKrk-B7 cells; tracer 125I-[Tyr36]PTHrP(1-36)amide
Procedure: as §1

In the case of “PTH(15-34)amide (LNSMERVEWLRKKLQDVHNF; not fully specified (C-terminus); UniProt P01270 46-65, looked up, fragment)”, the “affinity for the PTH1R (in words)” value [1] is listed as “very low (micromolar) affinity”.

`CC[C@H](C)[C@H](NC(=O)[C@H](CC(C)C)NC(=O)[C@H](Cc1c[nH]cn1)NC(=O)[C@H](Cc1c[nH]cn1)NC(=O)[C@H](CC(C)C)NC(=O)[C@H](Cc1c[nH]c2ccccc12)NC(=O)[C@H](Cc1ccccc1)NC(=O)[C@H](CCCNC(=N)N)NC(=O)[C@H](CCCNC(=N)N)NC(=O)[C@H](CCCNC(=N)N)NC(=O)[C@H](CC(C)C)NC(=O)[C@H](CC(=O)O)NC(=O)[C@H](CCC(N)=O)NC(=O)[C@@H](NC(=O)[C@H](CO)NC(=O)[C@H](CCCCN)NC(=O)[C@@H](Cc1c[nH]c2ccccc12)NC(=O)[C@H](CC(C)C)NC(=O)[C@H](CC(=O)O)NC(=O)[C@H](Cc1c[nH]cn1)NC(=O)[C@H](CC(C)C)NC(=O)[C@@H](N)CC(C)C)[C@@H](C)CC)C(=O)N[C@@H](C)C(=O)N[C@@H](CCC(=O)O)C(=O)N[C@H](C(=O)N[C@@H](Cc1c[nH]cn1)C(=O)N[C@H](C(=O)N[C@@H](C)C(=O)N[C@@H](CCC(=O)O)C(=O)N[C@@H](Cc1ccc(O)cc1)C(N)=O)[C@@H](C)O)[C@@H](C)CC` [PTHrP(7-36), [Leu^11, D-Trp^12, Trp^23, Tyr^36]PTHrP(7-36)amide] gave an IC50 [2] of roughly 100 nM.

For AFRERARLLAALERRHWLNSYMHKLLVLDAP (not fully specified (C-terminus), also called human TIP-(9-39)) [TIP(9-39)], the IC50 [3] was 39 nM, the “fold improvement in apparent binding affinity relative to TIP(1-39)” value [4] was no more than 6 fold and the “IC50 of inhibition of agonist-stimulated cAMP accumulation, HKrk-B7 cells (agonists PTH(1-34), PTHrP(1-36) or PTHrP(1-20)/TIP(23-39), 1 nM)” value [5] was 300 nM. For the same molecule, the “fold higher apparent binding affinity in comparison to the parent peptide TIP(1-39)” value [6] was roughly 5.5 fold and the IC50 [7] was 44 nM.
